To fix the notation:
B1: Aquifex aeolicus DnaB helicase (enzyme)
chain: LPCDESAERAVLGSMLEDPENIPLVLEYLKEEDFCIDEHKLLFRVLTNLWSEYGNKLDFVLIKDHLEKKNLLQKIPIDWLEELYEEAVSPDTLEEVCKIVKQRSAQRAIIQLGIELIHKGKENKDFHTLIEEAQSRIFSIAESATSTQFYHVKDVAEEVIELIYKFKSSDRLVTGLPSGFTELDLKTTGFHPGDLIILAARPGMGKTAFMLSIIYNLAKDEGKPSAVFSLEMSKEQLVMRLLSMMSEVPLFKIRSGSISNEDLKKLEASAIELAKYDIYLDDTPALTTTDLRIRARKLRKEKEVEFVAVDYLQLLRPPVRKSSRQEEVAEVSRNLKALAKELHIPVMALAQLSREVEKRSDKRPQLADLRESGQIEQDADLILFLHRPEYYKKKPNPEEQGIAEVIIAKQRQGPTDIVKLAFIKEYTKFANLEA
notes: Aquifex aeolicus DnaB replicative helicase; also called AA DnaB; A. aeolicus DnaB; source: E. coli Rosetta (pET24a-AA-DnaB); cells co-lysed with cells expressing AA DnaC; purified as the BC complex (65°C step, heparin sepharose, Q-sepharose, Superdex-200)
B2: bacteriophage λP helicase loader (natural protein, UniProt P03689 1-233, looked up)
chain: MKNIAAQMVNFDREQMRRIANNMPEQYDEKPQVQQVAQIINGVFSQLLATFPASLANRDQNEVNEIRRQWVLAFRENGITTMEQVNAGMRVARRQNRPFLPSPGQFVAWCREEASVTAGLPNVSELVDMVYEYCRKRGLYPDAESYPWKSNAHYWLVTNLYQNMRANALTDAELRRKAADELVHMTARINRGEAIPEPVKQLPVMGGRPLNRAQALAKIAEIKAKFGLKGASV
notes: bacteriophage λ replication protein P (helicase loader), full length, 233 residues, 26,518 Da, untagged; Five copies stand in the predominant complex with the DnaB hexamer; The 6BBM model of λP has no side chains and covers about residues 109-233; also called lambdaP; LP; source: E. coli BL21(DE3), co-expressed with DnaB (pCDFDuet-λP); purified as the BP complex (ammonium sulfate, Q-sepharose, …)
B3: Aquifex aeolicus DnaC helicase loader (natural protein, UniProt O67056 1-235, looked up)
chain: MQDTATCSICQGTGFVKTEDNKVRLCECRFKKRDVNRELNIPKRYWNANLDTYHPKNVSQNRALLTIRVFVHNFNPEEGKGLTFVGSPGVGKTHLAVATLKAIYEKKGIRGYFFDTKDLIFRLKHLMDEGKDTKFLKTVLNSPVLVLDDLGSERLSDWQRELISYIITYRYNNLKSTIITTNYSLQREEESSVRISADLASRLGENVVSKIYEMNELLVIKGSDLRKSKKLSTPS
notes: Aquifex aeolicus DnaC helicase loader; Six copies stand in the complex with the DnaB hexamer; also called AA DnaC; A. aeolicus DnaC; source: E. coli Rosetta (pET24a-AA-DnaC); cells co-lysed with cells expressing AA DnaB; purified as the BC complex (65°C step, heparin sepharose, Q-sepharose, Superdex-200)

Data set [1] concerns the molecule itself. In words: native MS; co-purified complex at 5 µM, buffer-exchanged into 450 mM ammonium acetate pH 7.5, 0.5 mM magnesium acetate, 0.01% Tween-20; no ssDNA.
Data set [2] deals with T1, DnaB replicative helicase;lambda P helicase loader (Escherichia coli;bacteriophage lambda, UniProt P0ACB0;P03689 1-471;1-233, |). In words: native MS; no protein-DNA complex; 450 mM ammonium acetate pH 7.5, 0.5 mM magnesium acetate, 0.01% Tween-20; 5 uM protein, protein:ssDNA 1:1.2, 30 min on ice. To be noted: protein: recombinant;recombinant; tags: untagged;; chain copies: 6;5; single strand.

In data set [3] the target is T2, Escherichia coli DnaB helicase (Escherichia coli, UniProt P0ACB0 1-471).
T2 construct: E. coli DnaB replicative helicase, full length, untagged; Hexamer; The 6BBM model holds residues 17-471 at most; chain A lacks 167-203; also called EcDnaB; E. coli DnaB; source: E. coli BL21(DE3), co-expressed with λP (pET24-DnaB-EC); purified as the BP complex (ammonium sulfate, Q-sepharose, heparin sepharose, methyl HIC)
In words: native MS; BP complex at 5 µM in 450 mM ammonium acetate pH 7.5, 0.5 mM magnesium acetate, 0.01% Tween-20; incubated with the Oriλ-derived 43-mer ssDNA at 1:1.2 for 30 min on ice. To be noted: both partners purified.

Data set [4] addresses T2, Escherichia coli DnaB helicase. In words: native MS; co-purified complex at 5 µM, buffer-exchanged into 450 mM ammonium acetate pH 7.5, 0.5 mM magnesium acetate, 0.01% Tween-20; no ssDNA. To be noted: both partners purified.
The target is the same in data set [5]. As to the kind of experiment: native MS; BP sample in 500 mM ammonium acetate, 0.01% Tween-20, without magnesium acetate. To be noted: both partners purified.
Data set [6] deals with B1. As to the kind of experiment: native MS; co-purified complex at 5 µM, buffer-exchanged into 450 mM ammonium acetate pH 7.5, 0.5 mM magnesium acetate, 0.01% Tween-20; no ssDNA. The note with it: both partners purified.
The target of data set [7] is T1, DnaB replicative helicase;lambda P …. In words: native MS; B6P5 with one ssDNA, 459.5 kDa; no nucleotide bound; 450 mM ammonium acetate pH 7.5, 0.5 mM magnesium acetate, 0.01% Tween-20; 5 uM protein, protein:ssDNA 1:1.2, 30 min on ice. To be noted: protein: recombinant;recombinant; tags: untagged;; chain copies: 6;5; single strand.

Values joined by “and” are separate entries in the source; they are usually repeats but may differ in a detail not shown here. Equal entries are not always repeated.

T1 sequence (P0ACB0 whole entry, one chain of several): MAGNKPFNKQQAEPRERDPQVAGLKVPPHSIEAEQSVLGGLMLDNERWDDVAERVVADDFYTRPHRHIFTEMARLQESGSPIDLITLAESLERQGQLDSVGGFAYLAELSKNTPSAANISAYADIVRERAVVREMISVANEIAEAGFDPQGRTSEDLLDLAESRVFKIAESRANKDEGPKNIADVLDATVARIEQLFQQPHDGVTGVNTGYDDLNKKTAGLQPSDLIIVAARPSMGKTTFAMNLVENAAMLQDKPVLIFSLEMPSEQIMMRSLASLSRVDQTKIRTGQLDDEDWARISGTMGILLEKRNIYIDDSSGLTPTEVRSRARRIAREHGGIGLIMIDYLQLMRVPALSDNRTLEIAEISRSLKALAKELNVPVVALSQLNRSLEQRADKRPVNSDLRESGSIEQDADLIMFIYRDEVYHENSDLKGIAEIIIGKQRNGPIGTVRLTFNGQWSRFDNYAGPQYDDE
T2 sequence (P0ACB0 whole entry, the tested form may be a part): as the sequence (P0ACB0 whole entry, one chain of several) above

By stoichiometry N is commonly meant a count of units in the complex or per binding partner. As to B1, the “stoichiometry N” value in data set [1] came to 6 subunits.

On to TTTTTTTTTTTTTTTTTTTTTTTTT (ssDNA) [T25], for which, in data set [2], the binding result is given as “no binding”.

As to B2, the “stoichiometry N” value in data set [3] is 5 λP per DnaB hexamer; in data set [4] it was 5 λP per DnaB hexamer and 6 λP per DnaB hexamer and 4 λP per DnaB hexamer; in data set [5] it was 5 λP per DnaB hexamer and 6 λP per DnaB hexamer and 4 λP per DnaB hexamer.

For B3, the “stoichiometry N” value in data set [6] worked out at 6 DnaC per DnaB hexamer.

In the case of TGACGAATAATCTTTTCTTTTTTCTTTTGTAATAGTGTCTTTT (ssDNA) [ori-lambda DUE 43-mer], in data set [7], the binding result was “binds”.

For TTTTTTTTTTTTTTTTTTTTTTTTTTTTTTTTTTT (ssDNA) [T35], the binding result in data set [2] is “no binding”.

In the case of TTTTTTTTTTTTTTTTTTTTTTTTTTTTTTTTTTTTTTTTTTTTT (ssDNA) [T45], the binding result in data set [2] is “no binding”.
